Test results published in PMC4176178, “An evolutionarily conserved interaction of tumor suppressor protein Pdcd4 with the poly(A)-binding protein contributes to translation suppression by Pdcd4”.

Assays:
GST-Pdcd4 wt = molecular target: T1, GST-Pdcd4 wt (human, UniProt Q53EL6 1-469); test: EMSA; EMSA: 10 mM Tris-HCl pH 7.8, 100 mM NaCl, 1 mM EDTA, 2% ficoll, 30 min on ice; blot: 10 mM Tris-HCl pH 7.5, 5 mM KCl, 2 mM MgCl2, room temperature; poly(U): 10; conditions: protein: recombinant; tags: GST; label: 5' 32P; single strand
T1 sequence: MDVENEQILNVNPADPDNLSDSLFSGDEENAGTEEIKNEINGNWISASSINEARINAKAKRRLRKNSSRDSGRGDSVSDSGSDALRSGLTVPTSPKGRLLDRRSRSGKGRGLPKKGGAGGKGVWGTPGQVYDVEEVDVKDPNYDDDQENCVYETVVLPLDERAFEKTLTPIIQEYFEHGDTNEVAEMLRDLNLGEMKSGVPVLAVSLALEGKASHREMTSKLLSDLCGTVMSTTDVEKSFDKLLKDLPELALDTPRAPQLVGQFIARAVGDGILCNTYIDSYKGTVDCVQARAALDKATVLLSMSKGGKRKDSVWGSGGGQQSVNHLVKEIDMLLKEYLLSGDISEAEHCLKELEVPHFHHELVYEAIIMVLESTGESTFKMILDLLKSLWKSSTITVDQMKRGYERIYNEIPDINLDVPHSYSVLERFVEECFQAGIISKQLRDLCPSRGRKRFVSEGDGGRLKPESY

His-PABP-RRM1-4 = His-PABP-RRM1-4 (mouse, UniProt P29341 1-375); test: as above; conditions: protein: recombinant; tags: His; label: 5' 32P; single strand
His-PABP-RRM1-4, sequence (P29341 1-375): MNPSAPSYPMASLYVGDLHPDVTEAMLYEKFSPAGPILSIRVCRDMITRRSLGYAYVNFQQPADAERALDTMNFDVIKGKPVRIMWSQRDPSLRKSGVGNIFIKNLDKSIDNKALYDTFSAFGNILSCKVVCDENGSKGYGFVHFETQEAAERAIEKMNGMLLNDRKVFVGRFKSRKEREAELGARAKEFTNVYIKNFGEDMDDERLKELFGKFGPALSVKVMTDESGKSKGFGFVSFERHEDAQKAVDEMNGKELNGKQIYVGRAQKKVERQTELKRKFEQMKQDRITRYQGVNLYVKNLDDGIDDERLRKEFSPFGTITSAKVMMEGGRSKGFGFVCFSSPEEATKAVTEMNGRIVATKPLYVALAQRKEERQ

## AAAAAAAAAAAAAAAAAAAAAAAAA (ssRNA) [oligo(A)25]
GST-Pdcd4 wt
  binding result: no binding
His-PABP-RRM1-4
  binding result: binds
